Target: mAb X’ (E262K sequence variant containing mAb X)
Test: ELISA; plates coated with serially diluted mAb, constant amount of C1q added, detected with biotinylated anti-C1q antibody and HRP-streptavidin; relative binding by parallel line analysis against mAb X

C1q protein (complex)
relative binding against mAb X: 0.95

From publication PMC8225904
